The record followed here is patent US6890900B2, “Methods for treating or preventing diseases of the oral cavity” (Campina B.V., priority 2001, dated 2005).

For test [1], the system named is Streptococcus mutans ATCC #33535. Kind of test: LF/GMP assay, viable plate count (pour plate) of broth culture. It counts as cell-based. Particulars: 35° C.; for Colony Counts: viable plate count. The method, then: (§1) Bacterial strains used in this study were Pseudomonas aeruginosa ATCC #27853, Streptococcus mutans ATCC #33535, Streptococcus pyogenes ATCC #19615, and Actinobacillus haemophilus ATCC #43717 and an oral swab from a healthy adult. Bacteria were grown on blood/BHT media (Brain Heart Infusion Agar with protease peptone, sodium chloride, glucose, di-sodium phosphate, and agar, Oxoid, Hampshire England, Sheep's Blood) in the presence of 5% CO2 at 35° C. […] One ml of the appropriate bacterial dilution was taken using a sterile pipette and introduced into 8 ml of sterilized BHI broth. […] By pipette, 9 ml of broth was placed into medium test tubes as means of a control and 8 ml test tubes were prepared for the concentration tests). […] This solution was filtered through a 0.45 μm filter. […] To study the kinetics of LF/GMP binding, each strain of bacteria was taken separately with a sterile pipette and placed into an 8 ml BHI broth test tube, vortexed, and incubated in the presence of 1 ml of LF or GMP for 18-24 hours at 35° C. with 5% CO2. In the combination procedure, 0.5 ml of both LF and […] were taken as 1 ml inoculations. One mL of each bacterial strain, plus one mL of sialic acid solution (1,000 ppm) were inoculated into test tubes filled with 8 mL of BHI broth. Each test tube was vortexed, incubated for 24 hours at 35° C. with 5% CO2, and then pour plated in BHI agar to obtain a plate count. This technique was used to determine the density of living (viable) cells in inoculated broth cultures. It involves plating a bacterial sample and counting the resulting colonies after incubation. A serial dilution of the original broth was taken prior to plating. The serial dilution is necessary to reduce the density of organisms in order to create countable plates. Only plates containing between 25 and 250 colonies are considered countable. Cell densities are traditionally recorded as CFU (colony forming unit)/ml. […] Formula: [formula] The assays required the use of a pour plate technique. The pour plate technique adds a step to the conventional serial dilution. The 1 ml of dilution is added to a warm emulsion of dilute nutrient (BHI) agar to produce an agar overlay in the petri plates. After incubation, the bacterial growth covers the entire plate but individual cellular movement has been restricted by the soft agar overlay. Each colony formed is assumed to have originated from a single CFU. The plates were gently mixed, inverted, and incubated for 18-24 hour at 35° C. Using a control (one broth tube inoculated with a bacterial strain, but no LF), the effectiveness of LF was examined. Each test tube containing a specified amount of LF (50, 100, 250, 500, 1,000 ppm and 3000 ppm) was diluted and plates were poured. […] A. haemophilus, S. mutans, S. pyrogenes and an oral culture were tested at 35° C. Pseudomonas aeruginosa was tested at both room temperature and 35° C. with 5% CO2. This was done because P. aeruginosa is not strictly an oral pathogen. It is commonly found in the environment in various conditions. It can be found in the environment and oral intake can cause inflammation in the oral cavity. Most normal oral bacteria are only found in the mouth and are not taken in from outside factors. Therefore, P. aeruginosa is a threat in both temperature settings. […] (see Table 2).

Test [2] has as its system Actinobacillus haemophilus ATCC #43717. The description is as above. It counts as cell-based. Particulars: 35° C.; for Colony Counts: viable plate count. The method, then:
as §1

The mark [3] stands for this setting: Lactoferrin/GMP 250/0 ppm (LF alone).
The mark [4] stands for this setting: Lactoferrin/GMP 3,000/0 ppm (LF alone).
[5] abbreviates: Lactoferrin/GMP 3,000/0 ppm (LF alone), listed as Lactoferrin.

B1: LF: Bovine lactoferrin, iron-binding glycoprotein purified from milk, provided by DMV International (protein, UniProt P24627 20-708, looked up)
Lactotransferrin: APRKNVRWCTISQPEWFKCRRWQWRMKKLGAPSITCVRRAFALECIRAIAEKKADAVTLDGGMVFEAGRDPYKLRPVAAEIYGTKESPQTHYYAVAVVKKGSNFQLDQLQGRKSCHTGLGRSAGWIIPMGILRPYLSWTESLEPLQGAVAKFFSASCVPCIDRQAYPNLCQLCKGEGENQCACSSREPYFGYSGAFKCLQDGAGDVAFVKETTVFENLPEKADRDQYELLCLNNSRAPVDAFKECHLAQVPSHAVVARSVDGKEDLIWKLLSKAQEKFGKNKSRSFQLFGSPPGQRDLLFKDSALGFLRIPSKVDSALYLGSRYLTTLKNLRETAEEVKARYTRVVWCAVGPEEQKKCQQWSQQSGQNVTCATASTTDDCIVLVLKGEADALNLDGGYIYTAGKCGLVPVLAENRKSSKHSSLDCVLRPTEGYLAVAVVKKANEGLTWNSLKDKKSCHTAVDRTAGWNIPMGLIVNQTGSCAFDEFFSQSCAPGADPKSRLCALCAGDDQGLDKCVPNSKEKYYGYTGAFRCLAEDVGDVAFVKNDTVWENTNGESTADWAKNLNREDFRLLCLDGTRKPVTEAQSCHLAVAPNHAVVSRSDRAAHVKQVLLHQQALFGKNGKNCPDKFCLFKSETKNLLFNDNTECLAKLGGRPTYEEYLGTEYVTAIANLKKCSTSPLLEACAFLTR
B1: the “Colony Counts” value is on record as 1.9 × 10^8 in test [1] (50 ppm, 24 h); 1.9 × 10^8 in test [1] (100 ppm, 24 h); 1.7 × 10^8 in test [1] (250 ppm, 24 h); 1.4 × 10^8 in test [1] (500 ppm, 24 h); 1.2 × 10^8 in test [1] (1,000 ppm, 24 h); 5.5 × 10^7 in test [1] (3,000 ppm, 24 h). For the same molecule, the “Colony Counts” value was 2.6 × 10^8 in test [2] (50 ppm, 24 h); 2.5 × 10^8 in test [2] (100 ppm, 24 h); 2.5 × 10^8 in test [2] (250 ppm, 24 h); 2.3 × 10^8 in test [2] (500 ppm, 24 h); 2.4 × 10^8 in test [2] (1,000 ppm, 24 h); 5.3 × 10^7 in test [2] (3,000 ppm, 24 h). In addition, the “Total Log Reduction” value in test [1] (setting [3]) is given as 0 log; in test [1] (setting [4]), “one log”; in test [1] (setting [5]), 1 log; in test [2] (setting [3]), 0 log; in test [2] (setting [4]) it was “one log”; in test [2] (setting [5]), 1 log. For the same molecule, the “# Log Reductions” value in test [1] (at the MIBC, vs control) stood at 1 log; in test [2] (at the MIBC, vs control) it was 1 log. The MIBC in test [1] (single agent, 24 h, 5% CO2) is reported as 3,000 ppm; in test [2] (single agent, 24 h, 5% CO2) it was 3,000 ppm.
